One experiment deals with human PD-1 (human, UniProt Q15116). As to the kind of experiment: flow cytometry, Jurkat/IL-2/PD-1 cells.
The target of the next experiment is T1, CD80 (human).
T1 chain: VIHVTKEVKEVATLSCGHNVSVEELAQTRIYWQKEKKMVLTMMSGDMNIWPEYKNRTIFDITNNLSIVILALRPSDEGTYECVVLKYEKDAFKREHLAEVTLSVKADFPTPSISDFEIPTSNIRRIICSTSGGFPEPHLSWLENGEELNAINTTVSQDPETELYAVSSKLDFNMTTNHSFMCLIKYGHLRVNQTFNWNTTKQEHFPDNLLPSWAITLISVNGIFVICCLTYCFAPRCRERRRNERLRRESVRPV
The experiment is described as follows: flow cytometry, CHO-CD80 cells. (In general: A flow cytometer gives signals particle by particle.)

For another experiment, the target named is PD-1 (human, UniProt Q15116). As to the kind of experiment: cell-based or functional assay.

As usually defined, the EC50 is the concentration at which the effect is half-maximal. Read a low EC50 as higher potency in that assay.

B1: CTLA-4 3037-PD-L1 303-Fc (Fc fusion)
chain: KAMHVAQPAVVLASSRGIASFVCEYASPWKATEVRVTVLRQADSQVTEVCAATYMMGSELTFPDDSICTGTSSGNQVNLTIRGLRAMDTGLYICKVEQMYPPPYLLGIGNGTQIYVIDPEPCPDSDGSGGSGGGGSGGGGSFTVTVPKDLYVVEYGSNMTIECKFPVEKQLDLAALIVYWEMEGKDIIQFVHGEEDQKAQHSSYRQRARLLKDQLSLGNAALQITDVKLQDAGVYRCMISYGGGADYKRITVKVNAGGGGSGSGGGGSEPKSSDKTHTCPPCPAPEAEGAPSVFLFPPKPKDTLMISRTPEVTCVVVDVSHEDPEVKFNWYVDGVEVHNAKTKPREEQYNSTYRVVSVLTVLHQDWLNGKEYKCKVSNKALPAPIEKTISKAKGQPREPQVYTLPPSRDELTKNQVSLTCLVKGFYPSDIAVEWESNGQPENNYKTTPPVLDSDGSFFLYSKLTVDKSRWQQGNVFSCSVMHEALHNHYTQKSLSLSPG
With B1, the EC50 with human PD-1 turned out to be 111 nM; with CD80, 2.3 nM.

B2: CTLA-4 3060-PD-L1 303-Fc (Fc fusion)
chain: KAMHVAQPAVVFASSHGIASFVCEYASPWKATEVRVTVLRQADSQVTEVCAATYMTGNELTFLDDSICTGTSSGNQVNLTIQGLRAMDTGLYICKVEQMYPPPYLLGIGNGTQIYVIDPEPCPDSDGSGGSGGGGSGGGGSFTVTVPKDLYVVEYGSNMTIECKFPVEKQLDLAALIVYWEMEGKDIIQFVHGEEDQKAQHSSYRQRARLLKDQLSLGNAALQITDVKLQDAGVYRCMISYGGGADYKRITVKVNAGGGGSGSGGGGSEPKSSDKTHTCPPCPAPEAEGAPSVFLFPPKPKDTLMISRTPEVTCVVVDVSHEDPEVKFNWYVDGVEVHNAKTKPREEQYNSTYRVVSVLTVLHQDWLNGKEYKCKVSNKALPAPIEKTISKAKGQPREPQVYTLPPSRDELTKNQVSLTCLVKGFYPSDIAVEWESNGQPENNYKTTPPVLDSDGSFFLYSKLTVDKSRWQQGNVFSCSVMHEALHNHYTQKSLSLSPG
In the case of B2, the concentration for a half-maximal effect (EC50) with human PD-1 came to 0.6 nM; with CD80, 2.3 nM.

B3: CTLA4 3037-Fc (Fc fusion)
chain: KAMHVAQPAVVLASSRGIASFVCEYASPWKATEVRVTVLRQADSQVTEVCAATYMMGSELTFPDDSICTGTSSGNQVNLTIRGLRAMDTGLYICKVEQMYPPPYLLGIGNGTQIYVIDPEPCPDSDGSGGGGSEPKSSDKTHTCPPCPAPEAEGAPSVFLFPPKPKDTLMISRTPEVTCVVVDVSHEDPEVKFNWYVDGVEVHNAKTKPREEQYNSTYRVVSVLTVLHQDWLNGKEYKCKVSNKALPAPIEKTISKAKGQPREPQVYTLPPSRDELTKNQVSLTCLVKGFYPSDIAVEWESNGQPENNYKTTPPVLDSDGSFFLYSKLTVDKSRWQQGNVFSCSVMHEALHNHYTQKSLSLSPG
Regarding B3, in the experiment with CD80, it took 1.7 nM to reach a half-maximal effect (EC50).

B4: PD-L1 303-Fc + Fc (Fc fusion)
chain 1: HMSSVSAQAAAEPKSSDKTHTCPPCPAPEAEGAPSVFLFPPKPKDTLMISRTPEVTCVVVDVSHEDPEVKFNWYVDGVEVHNAKTKPREEQYNSTYRVVSVLTVLHQDWLNGKEYKCKVSNKALPAPIEKTISKAKGQPREPQVYTLPPCREEMTKNQVSLWCLVKGFYPSDIAVEWESNGQPENNYKTTPPVLDSDGSFFLYSKLTVDKSRWQQGNVFSCSVMHEALHNHYTQKSLSLSPGK
chain 2: FTVTVPKDLYVVEYGSNMTIECKFPVEKQLDLAALIVYWEMEGKDIIQFVHGEEDQKAQHSSYRQRARLLKDQLSLGNAALQITDVKLQDAGVYRCMISYGGGADYKRITVKVNAGSGGSGGGGSGGGGSEPKSSDKTHTCPPCPAPEAEGAPSVFLFPPKPKDTLMISRTPEVTCVVVDVSHEDPEVKFNWYVDGVEVHNAKTKPREEQYNSTYRVVSVLTVLHQDWLNGKEYKCKVSNKALPAPIEKTISKAKGQPREPQVCTLPPSREEMTKNQVSLSCAVKGFYPSDIAVEWESNGQPENNYKTTPPVLDSDGSFFLVSKLTVDKSRWQQGNVFSCSVMHEALHNHYTQKSLSLSPGHHHHHH
As to B4, in the experiment with PD-1, the “% CD25 Hi FoxP3 +” value amounted to 25.9 % at 100 nM.

B5: PD-L2 1417-Fc + Fc (Fc fusion)
chain 1: HMSSVSAQAAAEPKSSDKTHTCPPCPAPEAEGAPSVFLFPPKPKDTLMISRTPEVTCVVVDVSHEDPEVKFNWYVDGVEVHNAKTKPREEQYNSTYRVVSVLTVLHQDWLNGKEYKCKVSNKALPAPIEKTISKAKGQPREPQVYTLPPCREEMTKNQVSLWCLVKGFYPSDIAVEWESNGQPENNYKTTPPVLDSDGSFFLYSKLTVDKSRWQQGNVFSCSVMHEALHNHYTQKSLSLSPGK
chain 2: LFTVTVPKELYIIEQGSNVTLECNFDTGSHVNLGAITASLQKVENDASPHRERATLLEEQLPLGRALFHIPQVQVRDEGQYRCIIIYGDAWDYKYLTLKVKAGSGGSGGGGSGGGGSEPKSSDKTHTCPPCPAPEAEGAPSVFLFPPKPKDTLMISRTPEVTCVVVDVSHEDPEVKFNWYVDGVEVHNAKTKPREEQYNSTYRVVSVLTVLHQDWLNGKEYKCKVSNKALPAPIEKTISKAKGQPREPQVCTLPPSREEMTKNQVSLSCAVKGFYPSDIAVEWESNGQPENNYKTTPPVLDSDGSFFLVSKLTVDKSRWQQGNVFSCSVMHEALHNHYTQKSLSLSPGHHHHHH
In the case of B5, in the experiment with PD-1, the “% CD25 Hi FoxP3 +” value was 26.8 % at 100 nM.

B6: PD-L1 303-Fc (SEQ ID NO 3531) (Fc fusion)
chain: FTVTVPKDLYVVEYGSNMTIECKFPVEKQLDLAALIVYWEMEGKDIIQFVHGEEDQKAQHSSYRQRARLLKDQLSLGNAALQITDVKLQDAGVYRCMISYGGGADYKRITVKVNAGGGGSGGGGSEPKSSDKTHTCPPCPAPEAEGAPSVFLFPPKPKDTLMISRTPEVTCVVVDVSHEDPEVKFNWYVDGVEVHNAKTKPREEQYNSTYRVVSVLTVLHQDWLNGKEYKCKVSNKALPAPIEKTISKAKGQPREPQVYTLPPCREEMTKNQVSLWCLVKGFYPSDIAVEWESNGQPENNYKTTPPVLDSDGSFFLYSKLTVDKSRWQQGNVFSCSVMHEALHNHYTQKSLSLSPG
With B6, in the experiment with PD-1, the “% CD25 Hi FoxP3 +” value was 24.8 % at 100 nM.

B7: CTLA-4 3037-Fc-PD-L1 303 (SEQ ID NO 3670) (Fc fusion)
chain: KAMHVAQPAVVLASSRGIASFVCEYASPWKATEVRVTVLRQADSQVTEVCAATYMMGSELTFPDDSICTGTSSGNQVNLTIRGLRAMDTGLYICKVEQMYPPPYLLGIGNGTQIYVIDPEPCPDSDGSGGGGSEPKSSDKTHTCPPCPAPEAEGAPSVFLFPPKPKDTLMISRTPEVTCVVVDVSHEDPEVKFNWYVDGVEVHNAKTKPREEQYNSTYRVVSVLTVLHQDWLNGKEYKCKVSNKALPAPIEKTISKAKGQPREPQVYTLPPSRDELTKNQVSLTCLVKGFYPSDIAVEWESNGQPENNYKTTPPVLDSDGSFFLYSKLTVDKSRWQQGNVFSCSVMHEALHNHYTQKSLSLSPGGGGGSGGGGSGGGGSFTVTVPKDLYVVEYGSNMTIECKFPVEKQLDLAALIVYWEMEGKDIIQFVHGEEDQKAQHSSYRQRARLLKDQLSLGNAALQITDVKLQDAGVYRCMISYGGGADYKRITVKVNA
Regarding B7, the EC50 worked out at 4.5 nM in the experiment with human PD-1 and 1.9 nM with CD80.

B8: PD-L1 303-CTLA-4 3037-Fc (Fc fusion)
chain: FTVTVPKDLYVVEYGSNMTIECKFPVEKQLDLAALIVYWEMEGKDIIQFVHGEEDQKAQHSSYRQRARLLKDQLSLGNAALQITDVKLQDAGVYRCMISYGGGADYKRITVKVNAGSGGSGGGGSGGGGSKAMHVAQPAVVLASSRGIASFVCEYASPWKATEVRVTVLRQADSQVTEVCAATYMMGSELTFPDDSICTGTSSGNQVNLTIRGLRAMDTGLYICKVEQMYPPPYLLGIGNGTQIYVIDPEPCPDSDGGGGSGSGGGGSEPKSSDKTHTCPPCPAPEAEGAPSVFLFPPKPKDTLMISRTPEVTCVVVDVSHEDPEVKFNWYVDGVEVHNAKTKPREEQYNSTYRVVSVLTVLHQDWLNGKEYKCKVSNKALPAPIEKTISKAKGQPREPQVYTLPPSRDELTKNQVSLTCLVKGFYPSDIAVEWESNGQPENNYKTTPPVLDSDGSFFLYSKLTVDKSRWQQGNVFSCSVMHEALHNHYTQKSLSLSPG
For B8, the EC50 with human PD-1 amounted to 1 nM; in the experiment with CD80, 1.4 nM.

B9: PD-L1 303-CTLA4 3060-Fc (Fc fusion)
chain: FTVTVPKDLYVVEYGSNMTIECKFPVEKQLDLAALIVYWEMEGKDIIQFVHGEEDQKAQHSSYRQRARLLKDQLSLGNAALQITDVKLQDAGVYRCMISYGGGADYKRITVKVNAGSGGSGGGGSGGGGSKAMHVAQPAVVFASSHGIASFVCEYASPWKATEVRVTVLRQADSQVTEVCAATYMTGNELTFLDDSICTGTSSGNQVNLTIQGLRAMDTGLYICKVEQMYPPPYLLGIGNGTQIYVIDPEPCPDSDGGGGSGSGGGGSEPKSSDKTHTCPPCPAPEAEGAPSVFLFPPKPKDTLMISRTPEVTCVVVDVSHEDPEVKFNWYVDGVEVHNAKTKPREEQYNSTYRVVSVLTVLHQDWLNGKEYKCKVSNKALPAPIEKTISKAKGQPREPQVYTLPPSRDELTKNQVSLTCLVKGFYPSDIAVEWESNGQPENNYKTTPPVLDSDGSFFLYSKLTVDKSRWQQGNVFSCSVMHEALHNHYTQKSLSLSPG
Take B9: the figures for the EC50 in the experiment with human PD-1 and with CD80 were 0.5 nM and 3.4 nM, respectively.

B10: CTLA4 3037-Fc-PD-L1 303 (SEQ ID NO 3672) (Fc fusion)
chain: KAMHVAQPAVVLASSRGIASFVCEYASPWKATEVRVTVLRQADSQVTEVCAATYMMGSELTFPDDSICTGTSSGNQVNLTIRGLRAMDTGLYICKVEQMYPPPYLLGIGNGTQIYVIDPEPCPDSDGSGGGGSEPKSSDKTHTCPPCPAPEAEGAPSVFLFPPKPKDTLMISRTPEVTCVVVDVSHEDPEVKFNWYVDGVEVHNAKTKPREEQYNSTYRVVSVLTVLHQDWLNGKEYKCKVSNKALPAPIEKTISKAKGQPREPQVYTLPPSRDELTKNQVSLTCLVKGFYPSDIAVEWESNGQPENNYKTTPPVLDSDGSFFLYSKLTVDKSRWQQGNVFSCSVMHEALHNHYTQKSLSLSPGGGGGSGGGGSGGGGSAFTVTVPKDLYVVEYGSNMTIECKFPVEKQLDLAALIVYWEMEGKDIIQFVHGEEDQKAQHSSYRQRARLLKDQLSLGNAALQITDVKLQDAGVYRCMISYGGGADYKRITVKVNA
B10: the EC50 stood at 6.8 nM with human PD-1 and 0.921 nM with CD80.

B11: PD-L1 303-COMP (other)
chain: FTVTVPKDLYVVEYGSNMTIECKFPVEKQLDLAALIVYWEMEGKDIIQFVHGEEDQKAQHSSYRQRARLLKDQLSLGNAALQITDVKLQDAGVYRCMISYGGGADYKRITVKVNAGGGGSGGGGSGGGGSDLGPQMLRELQETNAALQDVRELLRQQVREITFLKNTVMECDACGDYKDDDDKHHHHHH
Take B11: the “% CD25 Hi FoxP3 +” value with PD-1 came to 23.5 % at 100 nM.

(Values after patent publication US20250163127A1 (published 2025).)
